Experimental data taken from patent US20210347900A1 (AstraZeneca / MedImmune, published 2021).

Key:
[1] = molecular target: T1, human LOX1 SNP K167N variant on cells (K167N SNP transfected CHO TREX cells) (human, UniProt P78380 1-273); assay: competition with DyLight 649 oxLDL on human LOX1 K167N CHO TREX cells, FMAT
T1 construct: whole, on cells; also called hLOX1 K167N; K167N hLOX1 CHO

[2] = molecular target: T2, human LOX1 on cells (human LOX1 transfected CHO TREX cells) (human, UniProt P78380 1-273); assay: competition with DyLight 649 oxLDL on human LOX1 CHO TREX cells, FMAT
T2 construct: whole, on cells; also called hLOX1 transfected cells; hLOX1 CHO

[3] = molecular target: T1, human LOX1 SNP K167N variant on cells …; assay: competition with DyLight 649 oxLDL on K167N hLOX1 CHO TREX cells (FMAT); row label not given, assay assigned by block order of Table 5
[4] = molecular target: T2, human LOX1 on cells (human LOX1 …); assay: competition with DyLight 649 AGE-BSA on human LOX1 CHO TREX cells, FMAT
[5] = molecular target: T3, recombinant human LOX1 (R&D Systems) (human, UniProt P78380 61-273); assay: competition with biotin CRP on immobilised recombinant hLOX1 (DELFIA); row label not given, assay assigned by block order of Table 5
[6] = molecular target: T2, human LOX1 on cells (human LOX1 …); assay: cell-based or functional assay
[7] = molecular target: T3, recombinant human LOX1 (R&D Systems); assay: competition with biotin CRP on plate-bound recombinant human LOX1, DELFIA
[8] = molecular target: T2, human LOX1 on cells (human LOX1 …); assay: competition with DyLight 649 AGE-BSA on hLOX1 CHO TREX cells (FMAT); row label not given, assay assigned by block order of Table 5
[9] = molecular target: T2, human LOX1 on cells (human LOX1 …); assay: saturation binding of DyLight 649 labelled antibody on hLOX1 CHO TREX cells (FMAT)
[10] = molecular target: T2, human LOX1 on cells (human LOX1 …); assay: competition with DyLight 649 oxLDL on hLOX1 CHO TREX cells (FMAT); row label not given, assay assigned by block order of Table 5; first Mean/SD/n block of Table 2 (oxLDL/hLOX1 competition), n = 8
[11] = molecular target: T4, Human CLEC-1A (human, UniProt Q8NC01 74-280, limits assumed); assay: IgG binding ELISA on coated antigen, absorbance at 450 nm
T4 construct: Bought protein; also called C-type lectin domain family 1 member A
T4 sequence (looked up): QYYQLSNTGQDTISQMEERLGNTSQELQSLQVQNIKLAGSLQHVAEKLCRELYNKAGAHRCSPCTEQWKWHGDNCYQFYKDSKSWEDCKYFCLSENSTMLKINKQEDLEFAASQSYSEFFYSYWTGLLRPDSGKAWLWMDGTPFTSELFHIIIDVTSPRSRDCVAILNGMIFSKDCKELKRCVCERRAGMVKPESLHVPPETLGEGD

[12] = molecular target: T5, Human CLEC-1B (CLEC-2) (human, UniProt Q9P126 58-229, limits assumed); assay: as above
T5 construct: Bought protein; also called C-type lectin domain family 1 member B

[13] = molecular target: T6, Human CLEC-7A (Dectin-1) (human, UniProt Q9BXN2-2 66-201, limits assumed); assay: as above
T6 construct: Bought protein; also called C-type lectin domain family 7 member A
T6 sequence (looked up): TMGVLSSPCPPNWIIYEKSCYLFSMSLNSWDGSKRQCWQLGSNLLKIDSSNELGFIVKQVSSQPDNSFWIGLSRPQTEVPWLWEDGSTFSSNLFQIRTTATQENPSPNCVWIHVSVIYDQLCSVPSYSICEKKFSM

[14] = molecular target: T7, Human SR-B3 (CD36) (human, UniProt P16671 30-439); assay: as above
T7 construct: Bought protein; also called Platelet glycoprotein 4

[15] = molecular target: T8, Human CLEC-4L (DC-SIGN) (human, UniProt Q9NNX6 62-404); assay: as above
T8 construct: Bought protein; also called C-type lectin domain family 4 member L
T8 sequence (looked up): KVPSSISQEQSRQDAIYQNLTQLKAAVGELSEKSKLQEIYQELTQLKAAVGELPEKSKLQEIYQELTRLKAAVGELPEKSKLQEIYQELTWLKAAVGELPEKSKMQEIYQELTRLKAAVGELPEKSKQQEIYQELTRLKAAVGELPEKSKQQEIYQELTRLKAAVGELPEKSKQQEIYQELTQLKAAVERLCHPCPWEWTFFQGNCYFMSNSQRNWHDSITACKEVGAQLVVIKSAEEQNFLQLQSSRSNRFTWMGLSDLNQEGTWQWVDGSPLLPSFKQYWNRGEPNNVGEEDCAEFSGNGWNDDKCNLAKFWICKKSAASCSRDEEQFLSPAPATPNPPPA

[16] = molecular target: T9, Human SR-A1 (MSR) (human, UniProt P21757 77-451); assay: as above
T9 construct: Bought protein; also called Macrophage scavenger receptor types I and II
T9 sequence (looked up): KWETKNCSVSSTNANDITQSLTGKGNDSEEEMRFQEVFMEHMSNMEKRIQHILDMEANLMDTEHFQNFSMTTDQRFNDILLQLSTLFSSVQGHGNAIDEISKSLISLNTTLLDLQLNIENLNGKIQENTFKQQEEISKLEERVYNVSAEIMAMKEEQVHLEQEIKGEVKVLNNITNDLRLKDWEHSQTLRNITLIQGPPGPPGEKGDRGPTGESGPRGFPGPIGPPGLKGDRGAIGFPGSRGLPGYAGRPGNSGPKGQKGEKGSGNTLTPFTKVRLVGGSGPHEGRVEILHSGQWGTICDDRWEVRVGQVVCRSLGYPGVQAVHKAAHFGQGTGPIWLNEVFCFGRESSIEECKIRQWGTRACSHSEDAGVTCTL

T5 sequence (Q9P126 58-229 limits assumed): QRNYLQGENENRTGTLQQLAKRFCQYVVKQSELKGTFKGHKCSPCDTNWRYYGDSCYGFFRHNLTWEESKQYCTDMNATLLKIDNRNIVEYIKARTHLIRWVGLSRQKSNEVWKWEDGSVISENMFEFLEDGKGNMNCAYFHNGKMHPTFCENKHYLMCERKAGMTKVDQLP
T7 sequence (P16671 30-439 limits assumed): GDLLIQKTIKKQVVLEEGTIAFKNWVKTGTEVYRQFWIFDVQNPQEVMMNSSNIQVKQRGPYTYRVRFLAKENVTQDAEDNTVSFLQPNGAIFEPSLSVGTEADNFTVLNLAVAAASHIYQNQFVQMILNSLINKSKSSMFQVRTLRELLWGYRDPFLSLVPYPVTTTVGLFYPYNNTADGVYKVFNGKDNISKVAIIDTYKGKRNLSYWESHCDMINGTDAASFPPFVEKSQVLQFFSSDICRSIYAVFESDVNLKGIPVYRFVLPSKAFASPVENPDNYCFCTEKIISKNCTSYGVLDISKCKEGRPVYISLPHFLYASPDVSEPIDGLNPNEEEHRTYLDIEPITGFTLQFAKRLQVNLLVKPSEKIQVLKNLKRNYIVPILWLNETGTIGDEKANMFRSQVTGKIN

B1: LOX696 IgG1-TM (antibody, V domains shown)
VH: QVQLVQSGGGLVQPGRSLRLSCAASGFTFDDYAMHWVRQAPGKGLEWVSGISWNSGSIGYADSVKGRFTISRDNAKNSLYLQMNSLRAEDTAVYYCAREGNWNYDAFDIWGRGTTVTVSS
VL: QSALTQPASVSGSPGQSITISCTGTSSDVGGYNYVSWYQQHPGKAPKLMIYDVSNRPSGVSNRFSGSKSGNTASLTISGLQAEDEADYYCSSYTSSSTNWVFGGGTKLTVL
notes: Whole human IgG1-TM (L234F/L235E/P331S); Labelled with DyLight 649 in Assay 7; also called LOX10696-IgG1-TM; LOX10696 IgG1-TM
- IC50 (read off the curve) [1]: ~0.4 nM
- IC50 (read off the curve) [2]: ~0.3 nM
- IC50 [3]: 0.246 nM
- IC50 (read off the curve) [4]: ~0.01 nM
- IC50 [5]: 4.69 nM
- IC50 of inhibition of Cypher 5E oxLDL internalization in hLOX1 CHO TREX cells (row label not given; assay assigned by block order of Table 5) [6]: 0.35 nM
- IC50 of inhibition of oxLDL-dependent ROS generation in hLOX1 CHO TREX cells (row label not given; assay assigned by block order of Table 5) [6]: 6.22 nM
- IC50 (read off the curve) [7]: ~2 nM
- IC50 [8]: 0.0873 nM
- Kd [9]: 3.3 nM
- IC50 [10]: 0.131 nM
- binding result [11]: no binding (tested: 0.2 µg/mL (single concentration))
- binding result [12]: no binding (tested: 0.2 µg/mL (single concentration))
- binding result [13]: no binding (tested: 0.2 µg/mL (single concentration))
- binding result [14]: no binding (tested: 0.2 µg/mL (single concentration))
- binding result [15]: no binding (tested: 0.2 µg/mL (single concentration))
- binding result [16]: no binding (tested: 0.2 µg/mL (single concentration))
